From US20130011378A1, “Stable formulations of a hyaluronan-degrading enzyme” (priority 2011, published 2013)

Experiments:
[1] = RP-HPLC: insulin apparent solubility / percent recovery; details: 7 days at 2-8° C.
Method in brief: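 Vial samples withdrawn at each time point, centrifuged, held at 4 °C, run in duplicate by RP-HPLC. Apparent solubility = combined insulin main and desamido peak areas as percent versus standards/initial formulation; purity = main insulin peak as percent of all insulin species.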

[2] = cited from earlier work

Substance: regular insulin: mature human insulin, SEQ ID NOS: 103 and 104
- Solubility of regular Insulin, % remaining of the original concentration ([1]; 0.2% methylparaben + […] m-cresol, pH 6.6, NaCl 50 mM): 15.3%
- Solubility of regular Insulin, % remaining of the original concentration ([1]; 0.2% methylparaben + […] m-cresol, pH 6.6, NaCl 80 mM): 9.0%
- Solubility of regular Insulin, % remaining of the original concentration ([1]; 0.2% methylparaben + […] m-cresol, pH 6.6, NaCl 140 mM): 5.8%
- Solubility of regular Insulin, % remaining of the original concentration ([1]; 0.2% methylparaben + […] m-cresol, pH 6.8, NaCl 50 mM): 34.1%
- Solubility of regular Insulin, % remaining of the original concentration ([1]; 0.2% methylparaben + […] m-cresol, pH 6.8, NaCl 110 mM): 11.4%
- Solubility of regular Insulin, % remaining of the original concentration ([1]; 0.2% methylparaben + […] m-cresol, pH 7.0, NaCl 50 mM): 86.9%
- Solubility of regular Insulin, % remaining of the original concentration ([1]; 0.2% methylparaben + […] m-cresol, pH 7.0, NaCl 80 mM): 46.6%
- Solubility of regular Insulin, % remaining of the original concentration ([1]; 0.2% methylparaben + […] m-cresol, pH 7.0, NaCl 140 mM): 15.9%
- Solubility of regular Insulin, % remaining of the original concentration ([1]; 0.2% methylparaben + […] m-cresol, pH 7.2, NaCl 80 mM): 90.6%
- Solubility of regular Insulin, % remaining of the original concentration ([1]; 0.2% methylparaben + […] m-cresol, pH 7.2, NaCl 110 mM): 47.1%
- Solubility of regular Insulin, % remaining of the original concentration ([1]; 0.2% methylparaben + […] m-cresol, pH 7.2, NaCl 140 mM): 32.9%
- Solubility of regular Insulin, % remaining of the original concentration ([1]; 0.2% methylparaben + […] m-cresol, pH 7.4, NaCl 50 mM): 98.1%
- Solubility of regular Insulin, % remaining of the original concentration ([1]; 0.2% methylparaben + […] m-cresol, pH 7.4, NaCl 80 mM): 97.7%
- Solubility of regular Insulin, % remaining of the original concentration ([1]; 0.2% methylparaben + […] m-cresol, pH 7.4, NaCl 110 mM): 94.6%
- Solubility of regular Insulin, % remaining of the original concentration ([1]; 0.2% methylparaben + […] m-cresol, pH 7.4, NaCl 140 mM): 59.1%
- Solubility of regular Insulin, % remaining of the original concentration ([1]; 0.2% methylparaben + […] m-cresol, pH 7.6, NaCl 50 mM): 98.1%
- Solubility of regular Insulin, % remaining of the original concentration ([1]; 0.2% methylparaben + […] m-cresol, pH 7.6, NaCl 80 mM): 97.9%
- Solubility of regular Insulin, % remaining of the original concentration ([1]; 0.2% methylparaben + […] m-cresol, pH 7.6, NaCl 140 mM): 95.4%
- Solubility of regular Insulin, % remaining of the original concentration ([1]; 0.2% phenol + […] m-cresol, pH 6.6, NaCl 50 mM): 26.8%
- Solubility of regular Insulin, % remaining of the original concentration ([1]; 0.2% phenol + […] m-cresol, pH 6.6, NaCl 80 mM): 8.7%
- Solubility of regular Insulin, % remaining of the original concentration ([1]; 0.2% phenol + […] m-cresol, pH 6.6, NaCl 110 mM): 6.5%
- Solubility of regular Insulin, % remaining of the original concentration ([1]; 0.2% phenol + […] m-cresol, pH 6.6, NaCl 140 mM): 5.8%
- Solubility of regular Insulin, % remaining of the original concentration ([1]; 0.2% phenol + […] m-cresol, pH 6.8, NaCl 50 mM): 38.4%
- Solubility of regular Insulin, % remaining of the original concentration ([1]; 0.2% phenol + […] m-cresol, pH 6.8, NaCl 80 mM): 17.1%
- Solubility of regular Insulin, % remaining of the original concentration ([1]; 0.2% phenol + […] m-cresol, pH 6.8, NaCl 140 mM): 6.5%
- Solubility of regular Insulin, % remaining of the original concentration ([1]; 0.2% phenol + […] m-cresol, pH 7.0, NaCl 50 mM): 100.3%
- Solubility of regular Insulin, % remaining of the original concentration ([1]; 0.2% phenol + […] m-cresol, pH 7.0, NaCl 80 mM): 35.7%
- Solubility of regular Insulin, % remaining of the original concentration ([1]; 0.2% phenol + […] m-cresol, pH 7.0, NaCl 110 mM): 17.7%
- Solubility of regular Insulin, % remaining of the original concentration ([1]; 0.2% phenol + […] m-cresol, pH 7.0, NaCl 140 mM): 11.6%
- Solubility of regular Insulin, % remaining of the original concentration ([1]; 0.2% phenol + […] m-cresol, pH 7.2, NaCl 80 mM): 92.2%
- Solubility of regular Insulin, % remaining of the original concentration ([1]; 0.2% phenol + […] m-cresol, pH 7.2, NaCl 110 mM): 37.4%
- Solubility of regular Insulin, % remaining of the original concentration ([1]; 0.2% phenol + […] m-cresol, pH 7.2, NaCl 140 mM): 18.9%
- Solubility of regular Insulin, % remaining of the original concentration ([1]; 0.2% phenol + […] m-cresol, pH 7.4, NaCl 80 mM): 99.2%
- Solubility of regular Insulin, % remaining of the original concentration ([1]; 0.2% phenol + […] m-cresol, pH 7.4, NaCl 110 mM): 87.8%
- Solubility of regular Insulin, % remaining of the original concentration ([1]; 0.2% phenol + […] m-cresol, pH 7.4, NaCl 140 mM): 40.6%
- Solubility of regular Insulin, % remaining of the original concentration ([1]; 0.2% phenol + […] m-cresol, pH 7.6, NaCl 80 mM): 99.2%
- Solubility of regular Insulin, % remaining of the original concentration ([1]; 0.2% phenol + […] m-cresol, pH 7.6, NaCl 110 mM): 98.5%
- Solubility of regular Insulin, % remaining of the original concentration ([1]; 0.2% phenol + […] m-cresol, pH 7.6, NaCl 140 mM): 82.2%
- Solubility of regular Insulin, % remaining of the original concentration ([1]; […] phenol + […] m-cresol, pH 6.6, NaCl 50 mM): 31.2%
- Solubility of regular Insulin, % remaining of the original concentration ([1]; […] phenol + […] m-cresol, pH 6.6, NaCl 80 mM): 18.6%
- Solubility of regular Insulin, % remaining of the original concentration ([1]; […] phenol + […] m-cresol, pH 6.6, NaCl 140 mM): 12.9%
- Solubility of regular Insulin, % remaining of the original concentration ([1]; […] phenol + […] m-cresol, pH 6.8, NaCl 50 mM): 66.6%
- Solubility of regular Insulin, % remaining of the original concentration ([1]; […] phenol + […] m-cresol, pH 6.8, NaCl 80 mM): 24.9%
- Solubility of regular Insulin, % remaining of the original concentration ([1]; […] phenol + […] m-cresol, pH 7.0, NaCl 50 mM): 96.7%
- Solubility of regular Insulin, % remaining of the original concentration ([1]; […] phenol + […] m-cresol, pH 7.0, NaCl 80 mM): 80.8%
- Solubility of regular Insulin, % remaining of the original concentration ([1]; […] phenol + […] m-cresol, pH 7.0, NaCl 110 mM): 32.9%
- Solubility of regular Insulin, % remaining of the original concentration ([1]; […] phenol + […] m-cresol, pH 7.0, NaCl 140 mM): 17.1%
- Solubility of regular Insulin, % remaining of the original concentration ([1]; […] phenol + […] m-cresol, pH 7.2, NaCl 80 mM): 96.4%
- Solubility of regular Insulin, % remaining of the original concentration ([1]; […] phenol + […] m-cresol, pH 7.2, NaCl 110 mM): 58.7%
- Solubility of regular Insulin, % remaining of the original concentration ([1]; […] phenol + […] m-cresol, pH 7.2, NaCl 140 mM): 33.1%
- Solubility of regular Insulin, % remaining of the original concentration ([1]; […] phenol + […] m-cresol, pH 7.4, NaCl 50 mM): 96.7%
- Solubility of regular Insulin, % remaining of the original concentration ([1]; […] phenol + […] m-cresol, pH 7.4, NaCl 80 mM): 97.3%
- Solubility of regular Insulin, % remaining of the original concentration ([1]; […] phenol + […] m-cresol, pH 7.4, NaCl 110 mM): 94.2%
- Solubility of regular Insulin, % remaining of the original concentration ([1]; […] phenol + […] m-cresol, pH 7.4, NaCl 140 mM): 57.9%
- Solubility of regular Insulin, % remaining of the original concentration ([1]; […] phenol + […] m-cresol, pH 7.6, NaCl 50 mM): 97.2%
- Solubility of regular Insulin, % remaining of the original concentration ([1]; […] phenol + […] m-cresol, pH 7.6, NaCl 80 mM): 97.1%
- Solubility of regular Insulin, % remaining of the original concentration ([1]; […] phenol + […] m-cresol, pH 7.6, NaCl 110 mM): 97.1%
- Solubility of regular Insulin, % remaining of the original concentration ([1]; […] phenol + […] m-cresol, pH 7.6, NaCl 140 mM): 91.7%
- plasma half-life ([2]; following subcutaneous administration): about 1.5 hours
- Onset ([2]; in vivo): 30 min
- Peak ([2]; in vivo): 1 to 3 h
